Biological target: IgE of unfractionated patient serum (pool of patients' sera known to be reactive to the epitope peptide) (human)
Assay: inhibition: whole patients' sera pre-incubated with soluble peptide, then probing solid-phase E1 peptide

amount of soluble peptide needed to completely inhibit binding: 70 µg
Binder: QGLRGEEMEEMV [soluble form of the epitope peptide …]

Source: patent publication US20030103903A1
